Measurements published in the DeepSol protein solubility set.

Assay: soluble on expression in E. coli; label from the status in PepcDB or PDB records

Question: For “MTHILFDSRRFLQLGAFASLSTALAGAARYVTSTSNNEPADNTPLTIGYVPIAGSAPIAIADALGLFKKHGVNVTLKKYSGWSDLWTAYATEQLDVAHMLSPMTVAINAGVTNASRPTELSFTQNTNGQAITLASKHYGSVNSAADLKGMVLGIPFEYSVHALLLRDYLVSNAVDPIADLELRLLRPADMVAQLTVEGIDGFIGPGPFNERAISNGSGRIWLLTKQLWDKHPCCAVAMAKEWKAEHPTAAQGVLNALEEASAILSNPAQFDSSARTLSQEKYLNQPATLLDGPS”, which “soluble on expression in E. coli” value is on record?
Answer: not soluble

Question: With “GPGSMPASASTRTVGDSSKNASTSSVTNAVKDPNVTLSRADVEAAFAFFDLHNHKCLKPATLKERLSAFYPNMTSSEYKFLLDEASGAPFTVDTLWNIIDNFNTTRTAMPPAVAGSLRFDPIREAFRIYDPQGSGSVDVVVLADIMKTIGFGDLSPNELTLLIRPADFDNDGKISLEDFMNFLSNHR” as the sequence, how does the “soluble on expression in E. coli” value read?
Answer: soluble

Question: With “MSRSDAGRPAPTGADADRRTMVLESAMATFARFGYRKTSMEEVARAAHISRPGLYFLFSSKESLFRAAVTQALHRDITAVERALADGDRPLPERLVEAFDHWAGRYVGPLTRDVATVIEANPGILGEVVEVLPRRFEELVTDAITVATGREGAVRIAQTMISASTGLKHQVGSRESYLERLTVAVGLLLR” as the sequence, how does the “soluble on expression in E. coli” value read?
Answer: not soluble

Question: For “MSLYEPADGILETHVTWEDVEKDLQQSLGTRATFGENKRATNISDLKGFMSRIACLEPDWQNIEEGKELPSKFALKISSQLALVALSKIMNFEEGAGFSEEKLKKFSSLTKECHNREVDAYKVLMKFNHPDIPYTKGYMIIDFVPNIQTVEMYKSISADTIIPIIRGVATFSALGERLSKEDQHFVMGPTYLEMIFEDFFNDVELKKKFDTLRTTFEETENQEKVEKLITVFEHYKSLVKKYTNISDILGVKLVLNHGDLSQPNVLFSLDPQNKLKLEAIIDWQCVSRMPPGLDTARLLLGCLSGQERRERGTELLKVYHETYTSVFGEELFTFQELQELFNLFAPMMAMMLLPVMPSSIQSAIIPEEDKVSALKEVKTKMIAMMEDILEIHDNNLNHFSDFMKI”, which “soluble on expression in E. coli” value is on record?
Answer: not soluble

Question: For “MGSDKIHHHHHHMVSFVHSSDLHLGKSFGTFPEDVRVRLQQARLESLTTLADIARTNGARHVLLAGDTFDKMTPAPKVIRGALNAMREAADVTWWVLPGNHDHVNATELWRTFTSDAPANVHALLRPEPVMLTDGVALLPAPPTERHPGRDLTDWFDDAATGDALRIGLAHGSIRGFSAEDGGASVLSFNRARDAGLAYLGLGDWHGQLQVSENTWYSGAPEADSFKHAMDPSALLVEVDGARVTVTPHPTSRLIWRASEVDLIGDEADLPLPPQDRARTLLKLTLTGRARPAVRRDLEAAFDHAAPDFLWAEAEFDGLDLVHETSDLDQIDRQGALRAAAEALVREADDQALSPEARATADAALSLLFTYAAEA”, which “soluble on expression in E. coli” value is on record?
Answer: not soluble

Question: With “MGSDKIHHHHHHMNVTTSTLADGREIIYFDDHELREGERVLHDSRDLPHTQPLSEIRHDPLTNTWVAYAAHRMNRTFMPPANENPLAPTTPGNLPTEIPSPTYDVVVFENRFPSFSMNIAVGEDWESYVDGIDLYPRRPALARCEVVCFTPDVDKSFKDLPVSRIRTVINAWAHRTEALSALSGVQQVFPFENRGEEIGVTLQHPHGQIYSYPFLSPRLQAIVQSAQYYAETHDGHDLFDAIIREESAVQTRVIERTEHFIVFVPAAAKWPVEAMVMPLRAVADFTELTDVERDDLAALLKRLYTAVDSFFEGVTKTPYIAGWTQAPVDPALRPFGRLHLQLFSLMRSPNRMKFLAGSESSQGVWINDTTPERIAQRFKEVWPHATLD” as the sequence, how does the “soluble on expression in E. coli” value read?
Answer: not soluble

Question: With “MGSDKIHHHHHHMGKVADTLKPGDRVLLSFEDESEFLVDLEKDKKLHTHLGIIDLNEVFEKGPGEIIRTSAGKKGYILIPSLIDEIMNMKRRTQIVYPKDSSFIAMMLDVKEGDRIIDTGVGSGAMCAVLARAVGSSGKVFAYEKREEFAKLAESNLTKWGLIERVTIKVRDISEGFDEKDVDALFLDVPDPWNYIDKCWEALKGGGRFATVCPTTNQVQETLKKLQELPFIRIEVWESLFRPYKPVPERLRPVDRMVAHTAYMIFATKVCRREETE” as the sequence, how does the “soluble on expression in E. coli” value read?
Answer: not soluble

Question: Which “soluble on expression in E. coli” value does the source give for “MNVACPALLIAGPASGQGKTTLTAALARHHVRQGRRVRVFKVGPDFLDPMLLQAASGQPVYQLDLWLVGEDQCRSLLFEAARSADLILIEGVMGLFDGTPSAADLAQTFGVPVLAVIDASGMAETFGAVAHGLATHRPGLPFAGVVANRVASPGHADRLRASLPGAIPFRGAFFRQPDAGFPDRHLGLVQAPELGDLDRRLDTLADAVAGTGLADLPDSVPFAPESAAVPPRLLEGVRIGIARDAAFSFLYPANLDLLRAMGATPVFFSPLGDRSLPEVDSVYLPGGYPELHLDTLAGNGGMKESLREHVAAGKPLLAECGGLLYLLEELADQNGRTSAMCGILPGRAKMQTRLAGLGLQSAAFRSGTLRAHTFHYSRLETPLSPLLMAERRRGGSAGEAVYRQGRLTASYLHWYLPSCPEAAAELLRPLEHHHHHH” here?
Answer: soluble

Question: With NELDVPEQVDKLIQQATSIERLCQHYIGWCPFW as the sequence, how does the “soluble on expression in E. coli” value read?
Answer: soluble

Question: With “ENLYFQGMKPIHVGLLGLGTVGGGTLTVLRRNAEEITRRAGREIRVVRAAVRNLDKAEALAGGLPLTTNPFDVVDDPEIDIVVELIGGLEPARELVMQAIANGKHVVTANKHLVAKYGNEIFAAAQAKGVMVTFEAAVAGGIPIIKALREGLTANRIEWLAGIINGTSNFILSEMRDKGAAFDDVLKEAQRLGYAEADPTFDIEGIDAAHKLTILSAIAFGIPMQFERAYTEGISQLTREDVRYAEELGYRIKLLGIARRAENGIELRVHPTLIPERRLIANVDGAMNAVLVKGDAVGPTLYYGAGAGSEPTASAVVADLVDVTRLHTADPHHRVPHLAFQPDQLADTPILPMEAVRTAYYLRLRAFDRPGVLADITRILADSSISIDAMVQKEPAEGEEQVDIILLTHVTLEKNVNAAIAKIEALDAVAGKVMRIRLEDLGAK” as the sequence, how does the “soluble on expression in E. coli” value read?
Answer: soluble

Question: For “MARDGAVYACQSCGAVQTKWSGQCSACQSWNTLVEEVSAKPPGALSATKATRVRGLQFTGLESETAPPPRILTGVDEFDRVCGGGVVPGSALLIGGDPGVGKSTLLLQVCASAAARGVSCAYISGEEAVEQIRGRADRMGLAKANVSLAAETALRDILDGLKRDNFDLVVIDSIQTMWSDAHEAGPGTVTQVRACATELVRLAKKKGVAILLVGHVTKDGQIAGPRVVEHLVDAVLSFEGERGYPFRILRGAKNRFGATDEIGVFEMGDVGLREVKNPSALFLNEGGERAAGAAVFAGIEGSRPVLVEFQALVAPSAYGTPRRAVVGWDSGRLAMVLAVLEARCGLGFGDKDVYLNVAGGLRITEPAADLAAAAALASSALDVALPQDCVVFGELSLSGEVRPVSRMETRLKEAAKLGFGRALGPLAGLPEGGGALPVAGVARLTDAVRRIGDEIWTSLT”, which “soluble on expression in E. coli” value is on record?
Answer: soluble

Question: For “SVLEGNPEVGSPRTSDLQHRGNKGSCVLSSPGEDAQPGEEPIKYGELIVLGCCEEGGEETEAQRGEVTGPRAHSCYNGCLASGDKGRRRSRLALSRRSHANGVKPDVMHHISTPLVSKALSNRGQHSISYTLSRSHSVIVEYTHDSDTDMFQIGRSTENMIDFVVTDTSPGGGAAEGPSAQSTISRYACRILCDRRPPYTARIYAAGFDASSNIFLGERAAKWRTPDGLMDGLTTNGVLVMHPAGGFSEDSAPGVWREISVCGNVYTLRDSRSAQQRGKLVGGPLHSPPLSLPGPHKLPIPLPKPGDDLQSFCPREPQQAPYQGIPGPGGS”, which “soluble on expression in E. coli” value is on record?
Answer: soluble

Question: With “MEFKVTLTTEEIVRGLKHYRRIAKQDVLRAPETPNPEVFRRHAEARREVYAKLAEVAEREGPEAAVAYALELYRSLPFVTGTPEDQYPEIKGQENALENFFLMIGLDPKVRREARKARKPLQ” as the sequence, how does the “soluble on expression in E. coli” value read?
Answer: soluble

Question: With “GPQKRCLFVCRHGERMDVVFGKYWLSQCFDAKGRYIRTNLNMPHSLPQRSGGFRDYEKDAPITVFGCMQARLVGEALLESNTVIDHVYCSPSLRCVQTAHNILKGLQQDNHLKIRVEPGLFEWTKWVAGSTLPAWIPPSELAAANLSVDTTYRPHIPVSKLAISESYDTYINRSFQVTKEIISECKSKGNNILIVAHASSLEACTCQLQGLSPQNSKDFVQMVRKIPYLGFCSCEELGETGIWQLTDPPILPLTHGPTGGFNWRETLLQE” as the sequence, how does the “soluble on expression in E. coli” value read?
Answer: soluble

Question: With “MRGSHHHHHHTDPALRAYDNLKSLGITNPEEIDRYSLRQEANNDILKIYFQKDKGEFFAKSVKFKYPRQRKTVVADGVGQGYKEVQEISPNLRYIIDELDQICQRDRSEVDLKRKILDDLRHLESVVTNKISEIEADLEKLTRKGLCGR” as the sequence, how does the “soluble on expression in E. coli” value read?
Answer: soluble

Question: For “MGSDKIHHHHHHMGKVNYAAIDIGSNAVRLLIKSIDREAVQEKKIKKVMMLRVPLRLGFDVFSIGELSEKKADKLRRLMKAFRQLMKIYDVDDYRACATSAMRDARNGRTIIKKIEKDTGIRIEIIDGQEEARMIYNNHIECMEDRLGNYMYVDVGGGSTEINLLTNGELVWSVSYNIGTVRMLSNAVKEGTWQQMEEELMKVTEGVAAINIIGSGGNINKLFRLADKKDKKLQRLPVSSLQTVYDVLKPLTPEERVEAFSLKQDRADVIVPAAEIFLKIAEVVHAEYIYVPVIGLSDGIIDNLYAKSLEKEMKVE”, which “soluble on expression in E. coli” value is on record?
Answer: not soluble

Question: Which “soluble on expression in E. coli” value does the source give for “MQRARCYLIGETAVVLELEPPVTLASQKRIWRLAQRLVDMPNVVEAIPGMNNITVILRNPESLALDAIERLQRWWEESEALEPESRFIEIPVVYGGAGGPDLAVVAAHCGLSEKQVVELHSSVEYVVWFLGFQPGFPYLGSLPEQLHTPRRAEPRLLVPAGSVGIGGPQTGVYPLATPGGWQLIGHTSLSLFDPARDEPILLRPGDSVRFVPQKEGVC” here?
Answer: soluble

Question: For “PVTNMAELDAMIARVKKAQEEFATYSQEQVDKIFRAASLAANQARIPLAQQAVEESGMGIVEDKVIKNHFASEFIYNKYKDEQTCGILEEDDNLGTMTIAEPVGIICGIVPTTNPTSTAIFKSLISLKTRNGIIFSPHPRAKNSTNDAAKLVLDAAVAAGAPKDIIGWIDQPSVELSNALMKHDDIALILATGGPGMVKAAYSSGKPAIGVGAGNVPVVIDETADIKRAVASVLMSKTFDNGVVCASE”, which “soluble on expression in E. coli” value is on record?
Answer: not soluble

Question: For “MLTQQQIDHIYDSLGCPLHFLWSYIGTAHGLSHDQADPDSFEERKKDFFFIVGKLLDDGLLKLGNRKTELIMEGNIEELVEMFRKSLPASDEEIDQEVGGLWFFTDCPFVAAWVYKGAGENGEDEYDWC”, which “soluble on expression in E. coli” value is on record?
Answer: not soluble

Question: For “MGSDKIHHHHHHMKVLVAMDEFHGIISSYQANRYVEEAVASQIETADVVQVPLFNGRHELLDSVFLWQSGQKYRIPVHDADMNEVEGVYGQTDTGMTVIEGNLFLKGKKPIVERTSYGLGEMIKHALDNDAKHVVISLGGIDSFDAGAGMLQALGAQFYDDEGRVVDMRQGAGVIKYIRRMDMSNLHPKMETARIQVMSDFSSRLYGKQSEIMQTYDAHQLNHNQAAEIDNLIWYFSELFKSELKIAIGPVERGGAGGGIAAVLNGLYQAEILTSHALVDQLTHLENLVEQADLIIFGEGLNENDQLLETTTLRIAELCHKHQKVAIAICATAEKFDLFESQGVTAMFNTFIDMPETYTDFKMGLQIRHYTVQSLKLLKTHFNVEV”, which “soluble on expression in E. coli” value is on record?
Answer: not soluble

Question: Which “soluble on expression in E. coli” value does the source give for “MVFLDPIHRIDVVTLSELSRLGFRRSGDFVYRPECHLCRQCLSCRVPVADFQMNSMQKKAWKRNQDLTMTVLPTRQASQIHYDLYERYINERHADGDMFPPSLDQFEKFLVHSCTDSFFLELWKDNRLISVSTCDLMDDGLSAVYTFFDPDEHRRSLGVYSILNQIEYVKTLGLEYVYLGYWVPHSAKMNYKSQYTPLELLLDGQWRRLNRSLSPEEINQLGNSLMTTLPSEWNNLIIKLEHHHHHH” here?
Answer: not soluble

Question: With “MGVTLAKGGNVSLSKEAPGLTAVTVGLGWDVRTTTGAAYDLDASALLCSGSGRVVSDLHFVFYNNLTSPDGSVQHTGDNLTGEGEGDDESINVELAQVPAEVTKIVFPVSIHEAQSRGQSFGQVSNAFIRVVNRANNVELARYDLSEDASTETAMVFGELYRHGGEWKFRAVGQGYASGLAGIASDYGVNV” as the sequence, how does the “soluble on expression in E. coli” value read?
Answer: not soluble
